The subject of one data set is MCF7. The data set is described as follows: percentage of EdU-negative (G0-arrested) nuclei per well, 72 h; higher = more G0 arrest. Conditions: reference: sequence is the full UniProt precursor, the tested protein was the secreted form or ectodomain.
The next data set deals with hTERT-HMEC. The data set is described as above. To be noted: reference: sequence is the full UniProt precursor, the tested protein was the secreted form or ectodomain.
Where [1] appears, read: protein concentration 0.0225 µM.
Setting [2] is: protein concentration 0.02372 µM.
[3] abbreviates: protein concentration 0.2372 µM.
[4] abbreviates: protein concentration 0.0257143 µM.
The mark [5] stands for this setting: protein concentration 0.257143 µM.
Setting [6] is: protein concentration 0.03125 µM.
[7] abbreviates: protein concentration 0.3125 µM.
Where [8] appears, read: protein concentration 0.0183225 µM.
Where [9] appears, read: protein concentration 0.183225 µM.

Data on six sequences can be found in the supplement of paper PMC11316812.

± gives the standard deviation of the averaged measurements.
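Note: secreted proteins added to cultured cells, EdU pulse at the end, nuclei found by Hoechst imaging, EdU status from nuclear versus surrounding ring intensity ratio, PBS as neutral control.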

Take “MISPFLVLAIGTCLTNSLVPEKEKDPKYWRDQAQETLKYALELQKLNTNVAKNVIMFLGDGMGVSTVTAARILKGQLHHNPGEETRLEMDKFPFVALSKTYNTNAQVPDSAGTATAYLCGVKANEGTVGVSAATERSRCNTTQGNEVTSILRWAKDAGKSVGIVTTTRVNHATPSAAYAHSADRDWYSDNEMPPEALSQGCKDIAYQLMHNIRDIDVIMGGGRKYMYPKNKTDVEYESDEKARGTRLDGLDLVDTWKSFKPRYKHSHFIWNRTELLTLDPHNVDYLLGLFEPGDMQYELNRNNVTDPSLSEMVVVAIQILRKNPKGFFLLVEGGRIDHGHHEGKAKQALHEAVEMDRAIGQAGSLTSSEDTLTVVTADHSHVFTFGGYTPRGNSIFGLAPMLSDTDKKPFTAILYGNGPGYKVVGGERENVSMVDYAHNNYQAQSAVPLRHETHGGEDVAVFSKGPMAHLLHGVHEQNYVPHVMAYAACIGANLGHCAPASSAGSLAAGPLLLALALYPLSVLF”: the “percentage of EdU-negative” value in the data set with MCF7 (setting [1]) turned out to be 26.1 ± 0.93%; in the data set on MCF7 (protein concentration 0.225 µM) it was 24.1 ± 2.4%; with hTERT-HMEC (setting [1]), 4.55 ± 0.2%; in the data set with hTERT-HMEC (protein concentration 0.225 µM), 4.93 ± 0.7%.
“MISPVLILFSSFLCHVAIAGRTCPKPDDLPFSTVVPLKTFYEPGEEITYSCKPGYVSRGGMRKFICPLTGLWPINTLKCTPRVCPFAGILENGAVRYTTFEYPNTISFSCNTGFYLNGADSAKCTEEGKWSPELPVCAPIICPPPSIPTFATLRVYKPSAGNNSLYRDTAVFECLPQHAMFGNDTITCTTHGNWTKLPECREVKCPFPSRPDNGFVNYPAKPTLYYKDKATFGCHDGYSLDGPEEIECTKLGNWSAMPSCKASCKVPVKKATVVYQGERVKIQEKFKNGMLHGDKVSFFCKNKEKKCSYTEDAQCIDGTIEVPKCFKEHSSLAFWKTDASDVKPC”: the “percentage of EdU-negative” value in the data set with MCF7 (setting [2]) was 28.1 ± 0.39%; in the data set with MCF7 (setting [3]) it was 24.5 ± 3.1%; in the data set on hTERT-HMEC (setting [2]), 5.35 ± 0.089%; in the data set on hTERT-HMEC (setting [3]) it was 5.3 ± 0.56%.
For the sequence “MKAIIHLTLLALLSVNTATNQGNSADAVTTTETATSGPTVAAADTTETNFPETASTTANTPSFPTATSPAPPIISTHSSSTIPTPAPPIISTHSSSTIPIPTAADSESTTNVNSLATSDIITASSPNDGLITMVPSETQSNNEMSPTTEDNQSSGPPTGTALLETSTLNSTGPSNPCQDDPCADNSLCVKLHNTSFCLCLEGYYYNSSTCKKGKVFPGKISVTVSETFDPEEKHSMAYQDLHSEITSLFKDVFGTSVYGQTVILTVSTSLSPRSEMRADDKFVNVTIVTILAETTSDNEKTVTEKINKAIRSSSSNFLNYDLTLRCDYYGCNQTADDCLNGLACDCKSDLQRPNPQSPFCVASSLKCPDACNAQHKQCLIKKSGGAPECACVPGYQEDANGNCQKCAFGYSGLDCKDKFQLILTIVGTIAGIVILSMIIALIVTARSNNKTKHIEEENLIDEDFQNLKLRSTGFTNLGAEGSVFPKVRITASRDSQMQNPYSRHSSMPRPDY [Q9H3R2]”, the “percentage of EdU-negative” value came to 22.5 ± 1.3% with MCF7 (setting [4]), 26.7 ± 0.67% in the data set with MCF7 (setting [5]), 5.64 ± 0.33% in the data set with hTERT-HMEC (setting [4]) and 5.31 ± 0.37% in the data set on hTERT-HMEC (setting [5]).
As to “MKALGAVLLALLLFGRPGRGQTQQEEEEEDEDHGPDDYDEEDEDEVEEEETNRLPGGRSRVLLRCYTCKSLPRDERCNLTQNCSHGQTCTTLIAHGNTESGLLTTHSTWCTDSCQPITKTVEGTQVTMTCCQSSLCNVPPWQSSRVQDPTGKGAGGPRGSSETVGAALLLNLLAGLGAMGARRP [Q8IV16]”, the “percentage of EdU-negative” value was determined as 28.3 ± 1.3% with MCF7 (setting [1]), 24.9 ± 0.96% in the data set with MCF7 (protein concentration 0.225 µM), 4.99 ± 0.54% with hTERT-HMEC (setting [1]) and 4.82 ± 0.83% with hTERT-HMEC (protein concentration 0.225 µM).
In the case of “MKALIAALLLITLQYSCAVSPTDCSAVEPEAEKALDLINKRRRDGYLFQLLRIADAHLDRVENTTVYYLVLDVQESDCSVLSRKYWNDCEPPDSRRPSEIVIGQCKVIATRHSHESQDLRVIDFNCTTSSVSSALANTKDSPVLIDFFEDTERYRKQANKALEKYKEENDDFASFRVDRIERVARVRGGEGTGYFVDFSVRNCPRHHFPRHPNVFGFCRADLFYDVEALDLESPKNLVINCEVFDPQEHENINGVPPHLGHPFHWGGHERSSTTKPPFKPHGSRDHHHPHKPHEHGPPPPPDERDHSHGPPLPQGPPPLLPMSCSSCQHATFGTNGAQRHSHNNNSSDLHPHKHHSHEQHPHGHHPHAHHPHEHDTHRQHPHGHHPHGHHPHGHHPHGHHPHGHHPHCHDFQDYGPCDPPPHNQGHCCHGHGPPPGHLRRRGPGKGPRPFHCRQIGSVYRLPPLRKGEVLPLPEANFPSFPLPHHKHPLKPDNQPFPQSVSESCPGKFKSGFPQVSMFFTHTFPK”, the “percentage of EdU-negative” value in the data set with MCF7 (setting [6]) came out at 26 ± 1.3%; with MCF7 (setting [7]) it was 25.5 ± 0.58%; with hTERT-HMEC (setting [6]), 4.57 ± 0.34%; with hTERT-HMEC (setting [7]) it was 4.52 ± 0.3%.
With “MKALIVLGLVLLSVTVQGKVFERCELARTLKRLGMDGYRGISLANWMCLAKWESGYNTRATNYNAGDRSTDYGIFQINSRYWCNDGKTPGAVNACHLSCSALLQDNIADAVACAKRVVRDPQGIRAWVAWRNRCQNRDVRQYVQGCGV”, the “percentage of EdU-negative” value came out at 25.9 ± 0.84% in the data set with MCF7 (setting [8]), 24.489 ± 0.011% in the data set on MCF7 (setting [9]), 5.192 ± 0.011% in the data set on hTERT-HMEC (setting [8]) and 4.83 ± 0.071% in the data set with hTERT-HMEC (setting [9]).
